Laboratory results: publication PMC5131902, “Pheromone Recognition and Selectivity by ComR Proteins among Streptococcus Species” (PLoS Pathogens, 2016)
Where two headings read alike, the source gives them in different places. Ends that are not written are not given here.

Legend:
[1] = system: S. agalactiae 2603 v/r ComR; assay: S. mutans ES1 test-bed PcomS::luxAB luciferase reporter assay; type: cell-based; details: synthetic peptides titrated to ES1 reporter strain carrying ComR S. agalactiae 2603
Source text: (§1) The entire known SigX regulon, as well as the proximal transcriptional regulator of sigX, ComR, is conserved throughout the Mutans, Bovis, and Pyogenic groups (Fig 1, top). Additionally, within these groups, the mature form of the peptide pheromone ComS contains a conserved double-tryptophan motif (‘WW’) (Fig 1, bottom). This led us to ask whether the putative ComRs encoded by members of these groups could respond to cognate and heterologous XIPs to activate comS and sigX transcription. To test this possibility, we developed a strain that would allow for control of the ComR and XIP variants present within the system. […] Additionally, when a multi-copy plasmid carrying wild-type comR was provided to a ΔcomR strain, the ability to naturally transform exogenous genomic DNA was rescued. With these observations in mind, we created an S. mutans UA159 ‘test bed’ strain, ES1, in which the endogenous comRS locus was replaced with a spectinomycin-resistance cassette (Fig 2A). Because this strain contains neither comS nor comR, it is unable to produce or respond to XIP pheromones. A plasmid was used as a vehicle to provide different comR variants, under control of the native promoter, with adjoining comR-comS intergenic regions containing ComR binding sites and the comS promoter. The plasmid also contains the bacterial luciferase genes, luxAB, under transcriptional control of the cloned comS promoter. Clones harboring each comR-variant plasmid were constructed, grown, and treated with titrations of synthetic XIP peptides. Since productive interaction between ComR and XIP results in transcriptional activation of the comS promoter, we could test the functionality of ComR–XIP interactions by assessing the specific bioluminescent activity of each culture. To ensure that the test bed recapitulated observed results seen in wild-type S. mutans UA159, we assessed the UA159 ComR with serial dilutions of the cognate XIP-C7 (the C-terminal seven amino acids of ComS) and measured bioluminescence levels (Fig 2B).
(§2) Predicted XIP peptide sequences were determined by identifying open reading frames downstream from the putative ComR gene by using NCBI BLAST to identify UA159 ComR homologues. One to three different lengths of peptide from each species were ordered from NeoScientific (Woburn, MA). Peptide crude extracts (purity 45–75%) were dissolved in DMSO (Fisher Scientific, Hampton, NH) at a concentration of 1 mM based upon the specific purity and stored at -20° C.
(§3) Starter cultures, from cultures stored in 20% glycerol at -80° C, of each ComR reporter strain were diluted to an OD600 of 0.05 in CDM + erm and incubated at 37° C until an OD^600 of ~0.1. 190 uL aliquots of reporter strain cell culture were added to wells within a 96-well (Greiner Bio-One; Monroe, NC) lidded, clear, flat-bottom plate, each containing 10 μL of DMSO or a 5x-serial dilution of the peptide of interest in DMSO (final concentration of 5% DMSO/well). Concentrations tested for each peptide were 1.3 nM, 6.4 nM, 38.6 nM, 231.5 nM, 1388.9 nM, […], and 50 μM. […] Prepared plates were lidded and sealed with Parafilm (Bemis, Oshkosh, WI) before incubation at 37° C, with continuous shaking, in a Synergy 2 plate reader (Biotek). OD600 and luminescence readings were measured every 15 min. over a 4-hr period. The maximum RLU measurement per well, between 60–240 minutes was recorded using Gen5 data analysis software. […]

S. mutans UA159 ComR = S. mutans UA159 ComR (Streptococcus mutans serotype c, UniProt Q8DWI6); assay: as above; type: cell-based
Source text: as §1, §2, §3

S. suis S10 (serotype 2) = details: cited from earlier work
Source text: One observed difference from published ComR/XIP behavior was for the two S. pyogenes strains used in our study, MGAS5005 (serotype M1) and MGAS315 (serotype M3).

[2] = molecular target: ComR S. bovis 83 (Streptococcus bovis Sbo 83)
[3] = molecular target: ComR S. bovis SboB (Streptococcus bovis SboB)
[4] = molecular target: ComR S. dysgalactiae subsp. equisimilis ATCC35666 (Streptococcus dysgalactiae subsp. equisimilis ATCC35666)
[5] = molecular target: ComR S. pyogenes MGAS5005 (Streptococcus pyogenes MGAS5005)
[6] = molecular target: ComR S. suis 05ZYH33 (residues 1–304), wild-type (Streptococcus suis 05ZYH33)
[7] = molecular target: ComR S. suis 05ZYH33 (residues 1–304), wild-type (Streptococcus suis 05ZYH33); assay: ITC; 300 μM XIP injected into 20 μM ComR; VP-ITC, 25°C; 20 mM Tris pH 7.5, 100 mM NaCl, 1 mM β-ME; one-site model
[8] = molecular target: ComR S. suis N220A (Streptococcus suis 05ZYH33); assay: as above
[9] = molecular target: ComR S. mutans UA159 (Streptococcus mutans UA159)
[10] = molecular target: ComR S. mutans UA159 (Streptococcus mutans UA159); remark: listed apart in the source

## ETEWWNVG [EBS3, designed XIP of eight residues for ComR S. agalactiae 2603, ETEWWNVG]
[1]
  reporter induction of ComR S. agalactiae 2603 (maximum relative luciferase activity), in words: did not elicit strong reporter activity

## GLDWWSL [UA159 C7]
S. mutans UA159 ComR
  EC50: 0.17 nM

## GNWGTWVEE [XIP-C9]
S. suis S10 (serotype 2)
  transformability upon addition of XIP length variant: highest transformability

## LDWWSLG [EBS1, designed XIP agonist of ComR S. agalactiae 2603, LDWWSLG]
[1]
  reporter induction of ComR S. agalactiae 2603 (maximum relative luciferase activity), in words: robust reporter induction

## S. bovis 83 XIP-C7 (peptide)
[2]
  EC50 of P comS::luxAB luciferase activity in the S. mutans ES1 test bed: < 1 nM

## S. bovis SboB XIP-C7 (peptide)
[3]
  EC50 of P comS::luxAB luciferase activity in the S. mutans ES1 test bed: < 1 nM

## S. dysgalactiae subsp. equisimilis ATCC35666 XIP-C7 (peptide)
[4]
  EC50 of P comS::luxAB luciferase activity in the S. mutans ES1 test bed: 15000 nM
  increase in reporter activity at 50 μM XIP: 10 fold

## S. pyogenes MGAS315 XIP-C8 (peptide)
[5]
  P comS::luxAB transcription at 50 μM XIP, relative to the maximum with the cognate XIP: 25%

## S. pyogenes MGAS5005 XIP-C8 (peptide)
[5]
  EC50 of P comS::luxAB transcription in the S. mutans ES1 test bed: 250 nM
  increase of P comS::luxAB transcription at 50 μM XIP: 25 fold

## S. suis 05ZYH33 XIP-C7 (peptide)
[6]
  EC50 of P comS::luxAB luciferase activity in the S. mutans ES1 test bed: 93 nM
[7]
  Kd: 862 nM
  dH: -13.6 kcal/mol
  stoichiometry N: 0.96
[8]
  Kd: 13700 nM
  dH: -7.28 kcal/mol
  stoichiometry N: 1.09

## TGWWMLG [EBS2, designed XIP agonist of ComR S. agalactiae 2603, TGWWMLG]
[1]
  reporter induction of ComR S. agalactiae 2603 (maximum relative luciferase activity), in words: robust reporter induction

## TMGWWGL [NEM316 XIP, putative Type-II XIP of S. agalactiae strain NEM316, TMGWWGL]
[1]
  reporter induction of ComR S. agalactiae 2603 (maximum relative luciferase activity), in words: unable to activate

## GLDWWSL [S. mutans UA159 XIP-C7]
[9]
  EC50 of P comS::luxAB luciferase activity in the S. mutans ES1 test bed: 0.2 nM
  maximal induction of luciferase activity in the test bed, at 2 nM XIP: 140 fold
[10]
  EC50 of P comS::luxAB luciferase activity in the S. mutans ES1 test bed: 88 nM
[7]
  Kd: 5880 nM
  dH: -6.01 kcal/mol
  stoichiometry N: 1.03
[8]
  Kd: 6060 nM
  dH: -4.26 kcal/mol
  stoichiometry N: 0.95
